In patent US11426422B2, “SHP2 inhibitors and methods of use thereof” (Research Development Foundation, priority 2018, dated 2022):
Where no end group is shown, it is not given here. [ ]: non-standard residue; d: D form. pY = N[C@@H](Cc1ccc(OP(=O)(O)O)cc1)C(=O)O; pS = N[C@@H](COP(=O)(O)O)C(=O)O

Columns and labels:
AP2M1 (residues 160-435) = target: T1, AP2M1 (residues 160-435) (Homo sapiens, UniProt Q96CW1); assay: in vitro peptide pull-down of AP2M1 with IRS1 peptides; format: binding; conditions: peptide beads pull-down, SDS-PAGE, Coomassie
T1 construct: The AP2M1 fragment (residues 160-435) was cloned into a modified pET28a; His6 (N, cleaved yes); made in house; host or cells: E. coli BL21(DE3)
T1 sequence (Q96CW1 160-435): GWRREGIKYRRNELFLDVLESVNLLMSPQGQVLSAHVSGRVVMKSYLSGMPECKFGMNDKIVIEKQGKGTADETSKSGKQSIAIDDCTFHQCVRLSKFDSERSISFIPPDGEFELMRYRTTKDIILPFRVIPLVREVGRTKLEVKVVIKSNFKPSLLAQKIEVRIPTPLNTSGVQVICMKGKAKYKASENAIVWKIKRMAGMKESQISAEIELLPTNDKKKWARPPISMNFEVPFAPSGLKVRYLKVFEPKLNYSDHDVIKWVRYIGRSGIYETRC
Protocol: FIGS. 2A-I. The MAPK pathway and SHP2 promote insulin-activated IR endocytosis. (FIG. 2A) HepG2 cells expressing IR-GFP WT were starved, treated with the indicated inhibitors for 2 h, treated without or with 100 nM insulin for 20 min, and stained with anti-GFP (IR; green) and DAPI (blue). See also FIG. 7A for representative images. Quantification of the ratios of PM and IC IR-GFP signals of cells was shown (mean±SD; *p<0.0001). (FIG. 2B) Binding of IRS1 peptides to AP2M1 (residues 160-435). Input and proteins bound to IRS1-peptide beads were analyzed by SDS-PAGE and stained with Coomassie (CBB). The relative band intensities are shown below (mean±SD; n=4 independent experiments). (FIG. 2C) ITC analysis of binding between IRS1 peptides and AP2M1 (residue 160-435), with the Kd indicated. (FIG. 2D) The IRS1 peptides were incubated with active SHP2 for the indicated durations, spotted onto membranes, and detected with the anti-pY612-IRS1 antibody. (FIG. 2E) Quantification of the relative SHP2 activity in FIG. 2D (mean±SD; n=4 independent experiments; *p<0.0001). (FIG. 2F) Model of the regulation of insulin-activated IR endocytosis by a phosphorylation switch on IRS1/2. Insulin-bound IR phosphorylates itself and IRS1/2, and activates the PI3K-AKT and MAPK pathways. SHP2 acts upstream of RAS-RAF and promotes the activation of MAPK pathway. p31^comet binds to the IR-bound MAD2 and blocks IR-AP2 association to prevent premature IR endocytosis. In feedback regulation, activated ERK1/2 phosphorylate S616 and other sites on IRS1. […]
For GST pull-down assays of in vitro translated (IVT) IRS1 proteins, beads bound to GST-AP2M1 or GST were incubated with IVT products diluted in the cell lysis buffer at 4° C. for 2 h. After incubation and washing, proteins bound to beads were eluted with the SDS loading buffer, resolved with SDS-PAGE, and detected with Coomassie staining or immunoblotting with the appropriate antibodies. […]

SHP2 = target: T2, SHP2 (Homo sapiens, UniProt Q06124); assay: in vitro phosphatase assay, dephosphorylation of IRS1 peptides by active SHP2; format: biochemical; conditions: doubly versus singly phosphorylated IRS1 peptide; active SHP2 2.9 μM, peptide 2.6 mM, 37° C.
T2 construct: purchased SignalChem
T2 sequence (Q06124 1-593): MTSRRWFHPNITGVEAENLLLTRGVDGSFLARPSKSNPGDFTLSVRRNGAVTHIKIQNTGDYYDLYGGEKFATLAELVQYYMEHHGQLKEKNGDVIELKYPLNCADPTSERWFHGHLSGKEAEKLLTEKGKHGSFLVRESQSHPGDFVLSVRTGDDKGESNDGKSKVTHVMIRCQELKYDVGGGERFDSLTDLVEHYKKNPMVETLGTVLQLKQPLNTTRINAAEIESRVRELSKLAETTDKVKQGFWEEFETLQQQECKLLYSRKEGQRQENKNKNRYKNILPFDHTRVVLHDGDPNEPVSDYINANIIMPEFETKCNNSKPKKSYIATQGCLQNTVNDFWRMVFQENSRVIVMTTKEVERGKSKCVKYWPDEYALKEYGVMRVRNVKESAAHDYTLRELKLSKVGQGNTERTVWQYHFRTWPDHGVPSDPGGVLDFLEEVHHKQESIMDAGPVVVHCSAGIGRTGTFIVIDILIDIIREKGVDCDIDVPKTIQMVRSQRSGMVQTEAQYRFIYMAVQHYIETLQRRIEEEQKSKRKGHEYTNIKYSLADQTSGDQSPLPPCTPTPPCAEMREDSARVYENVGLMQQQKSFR
Source text: To assess whether serine phosphorylation (pS616) of the YMPMS motif (SEQ ID NO:13) promotes dephosphorylation of pY612 by SHP2, its dephosphorylation kinetics were examined. […] Decreased IRS1 pS616 has been correlated with increased pY608 in vivo (Bard-Chapeau et al., 2005), and therefore, aside from directly augmenting the IRS1-AP2M1 interaction, ERK1/2-dependent phosphorylation of IRS1 indirectly promotes AP2M1 binding through enhancing the dephosphorylation of IRS1 by SHP2. Consistent with a role of ERK1/2-dependent phosphorylation of IRS1 in IR endocytosis, expression of the RNAi-resistant IRS1 phospho-mimicking mutant (3SD), but not the phospho-deficient mutant (3SA), restored IR endocytosis in 293FT cells depleted of IRS1/2 (FIG. 1G and FIG. 6E).
Active SHP2 (2.9 μM, SignalChem) diluted in the phosphatase dilution buffer (50 mM imidazole, pH 7.2, 0.2% 2-mercaptoethanol, 65 ng/μl BSA) was incubated with IRS1 peptides (2.6 mM) at 37° C. for the indicated time points. Two microliters of reaction products were spotted onto 0.45 m nitrocellulose membrane (BioRad) and dried completely. The membrane was blocked with 5% nonfat milk in TBS for 1 h, and washed once with TBS-T (0.02% Tween 20). […] The membranes were scanned with the Odyssey Infrared Imaging System (LI-COR, Lincoln, Nebr.) for quantification.

pYMPMpS: doubly phosphorylated IRS1 peptide CHTDDGpYMPMpSPGVA (SEQ ID NO:16) (CHTDDG[pY]MPM[pS]PGVA)
binding to AP2M1 (AP2M1 (residues 160-435)): abolished AP2M1 binding
dephosphorylation of pY612 by SHP2 (SHP2): promoted pY612 dephosphorylation by SHP2
